Source: publication PMC12170907 (2025)

Target: Superfolder-GFP-tagged M-HBsAg (serotype ayw, genotype D3) (Hepatitis B virus (serotype ayw, …))
Assay: ELISA

B1: 3× HA-tagged FabHBC (Fab, V domains shown)
VH: ELQLVESGGGWVQPGGSQRLSCAASGRIFRSFYMSWVRQAPGKGLEWVATINQDGSEKLYVDSVKGRFTISRDNAKNSLFLQMNNLRVEDTAVYYCAAWSGNSGGMDVWGQGTTVSVSS
VL: SYELTQPPSVSVSPGQTVSIPCSGDKLGNKNVCWFQHKPGQSPVLVIYEVKYRPSGIPERFSGSNSGNTATLTISGTQAMDEAAYFCQTWDSTTVVFGGGTRLTVL
  Kd: 0.103 nM
